Test results taken from patent US10011602B2, “Immunological reagents and uses therefor” (THE UNIVERSITY OF MELBOURNE, priority 2012, dated 2018).

Experiments:
control BW cells = assay: MR1 tetramer staining of control BW cells; type: cell-based, mouse
Source text: (§1) Wild-type human MR1 containing a C-terminal cysteine can be refolded with the addition of 5-amino-6-D-ribitylamino-uracil and pyruvaldehyde, using the standard refolding conditions described above, and then purified using the standard methods also described above. MR1 refolded in this way has rRL-6-CH2OH bound as determined by X-ray crystallography structural studies, and by electrospray ionization time-of-flight (ESI TOF) mass spectrometry. […] Excess biotin is removed by passing biotinylated protein through an S200 10/300 GL (Healthcare) gel filtration column in Tris buffered saline (pH 8.0), prior to formation of tetramers by addition to PE Streptavidin (#554061, BD Pharmingen). […] In the same manner human MR1 containing a C-terminal cysteine can be refolded with the addition of 5-amino-6-D-ribitylamino-uracil, and subsequently purified by fast protein liquid chromatography (FPLC) to yield MR1 refolded with a novel ribityllumazine metabolite, reduced 7-hydroxy-ribityllumazine (rRL-7-OH). The identity of rRL-7-OH bound to MR1 was confirmed by ESI TOF mass spectrometry, and by determining its structure using X-ray crystallography. The identity of rRL-7-OH bound to MR1 was also confirmed by refolding wild-type MR1 with 5-amino-6-D-ribitylamino-uracil and ^13C-glycolaldehyde to yield MR1-^13C-rRL-7-OH.

MAIT TCR-BW hybridomas = assay: MR1 tetramer staining of MAIT TCR-BW hybridomas; type: cell-based; details: hybridomas from mouse Vα19iTG splenocytes fused with BW cell line
Source text: as §1

B1: mouse MR1-rRL-6-CH2OH tetramers: tetramers from mouse wild-type MR1-rRL-6-CH2OH (C-terminal cysteine) (protein, UniProt Q8HWB0 19-341; P01887 21-119, looked up)
Major histocompatibility …: RTHSLRYFRLAVSDPGPVVPEFISVGYVDSHPITTYDSVTRQKEPKAPWMAENLAPDHWERYTQLLRGWQQTFKAELRHLQRHYNHSGLHTYQRMIGCELLEDGSTTGFLQYAYDGQDFIIFNKDTLSWLAMDYVAHITKQAWEANLHELQYQKNWLEEECIAWLKRFLEYGRDTLERTEHPVVRTTRKETFPGITTFFCRAHGFYPPEISMTWMKNGEEIAQEVDYGGVLPSGDGTYQTWLSVNLDPQSNDVYSCHVEHCGRQMVLEAPRESGDILRVSTISGTTILIIALAGVGVLIWRRSQELKEVMYQPTQVNEGSSPS
Beta-2-microglobulin: IQKTPQIQVYSRHPPENGKPNILNCYVTQFHPPHIEIQMLKNGKKIPKVEMSDMSFSKDWSFYILAHTEFTPTETDTYACRVKHASMAEPKTVYWDRDM
modifications: rRL-6-CH2OH ligand; C-terminal cysteine; tetramer
Tetramer staining of control BW cells (control BW cells): not | Tetramer staining of MAIT TCR-BW hybridomas (MAIT TCR-BW hybridomas): stain
